First the molecules themselves.
B1: SARS-CoV-2 ORF10 N5 peptide [SARS-CoV-2] / CUL2^ZYG11B (residues 490–728) [human] (parent)
chain 1: GYINV
chain 2: ELFIVRQLLQIVKQKTNQNSVDTTLKFTLSALWNLTDESPTTCRHFIENQGLELFMRVLESFPTESSIQQKVLGLLNNIAEVQELHSELMWKDFIDHISSLLHSVEVEVSYFAAGIIAHLISRGEQAWTLSRSQRNSLLDDLHSAILKWPTPECEMVAYRSFNPFFPLLGCFTTPGVQLWAVWAMQHVCSKNPSRYCSMLIEEGGLQHLYNIKDHEHTDPHVQQIAVAILDSLEKHIVR

The Kd is a measure of binding affinity in units of concentration.

In the assay the parent is B1. Kind of assay: ITC. Particulars: with CUL2^ZYG11B (residues 490–728) [human].
On to chain 1 G1S, for which the Kd turned out to be 13.2 µM.

Values taken from article PMC11413682.
